From the Human Domainome abundance scans (Beltran et al. 2025) come the findings set out here.

B1: Steroid hormone receptor ERR2, residues 100 to 176; numbered along this chain, O95718 (parent)
chain: KRLCLVCGDIASGYHYGVASCEACKAFFKRTIQGNIEYSCPATNECEITKRRRKSCQACRFMKCLKVGMLKEGVRLD

± gives the uncertainty stated by the source.

The variants in the series derive from B1. The series is described as follows: abundance fitness (aPCA) (normalised: wild type 0, dead -1); higher = more abundant; growth selection in yeast, the domain comes from the species named. As to conditions: Homo sapiens.
In the case of KRLCLVCGDIASGYHYGVASCEACKAFFKRTIQGNIEYSCPATNECTITKRRRKSCQACRFMKCLKVGMLKEGVRLD, the abundance fitness was -0.112 ± 0.087.
Turning to KRLCLVCGDIASGYHYGVASCEACKAFFKRTIQGNIEYSCPATNECDITKRRRKSCQACRFMKCLKVGMLKEGVRLD, the abundance fitness amounted to 0.038 ± 0.082.
With KRLCLVCGDIASGYHYGVASCEACKAFFKRTIQGNIEYSCPATNECGITKRRRKSCQACRFMKCLKVGMLKEGVRLD, the abundance fitness is -0.165 ± 0.045.
As for KRLCLVCGDIASGYHYGVASCEACKAFFKRTIQGNIEYSCPATNECCITKRRRKSCQACRFMKCLKVGMLKEGVRLD, the abundance fitness was -0.172 ± 0.11.
With KRLCLVCGDIASGYHYGVASCEACKAFFKRTIQGNIEYSCPATNECKITKRRRKSCQACRFMKCLKVGMLKEGVRLD, the abundance fitness was -0.155 ± 0.091.
As for KRLCLVCGDIASGYHYGVASCEACKAFFKRTIQGNIEYSCPATNECYITKRRRKSCQACRFMKCLKVGMLKEGVRLD, the abundance fitness is -0.184 ± 0.12.
Take KRLCLVCGDIASGYHYGVASCEACKAFFKRTIQGNIEYSCPATNECVITKRRRKSCQACRFMKCLKVGMLKEGVRLD: the abundance fitness was -0.14 ± 0.058.
Consider KRLCLVCGDIASGYHYGVASCEACKAFFKRTIQGNIEYSCPATNECLITKRRRKSCQACRFMKCLKVGMLKEGVRLD, for which the abundance fitness is -0.103 ± 0.061.
For KRLCLVCGDIASGYHYGVASCEACKAFFKRTIQGNIEYSCPATNECFITKRRRKSCQACRFMKCLKVGMLKEGVRLD, the abundance fitness is -0.354 ± 0.13.
Turning to KRLCLVCGDIASGYHYGVASCEACKAFFKRTIQGNIEYSCPATNECAITKRRRKSCQACRFMKCLKVGMLKEGVRLD, the abundance fitness was -0.102 ± 0.056.
Take KRLCLVCGDIASGYHYGVASCEACKAFFKRTIQGNIEYSCPATNECQITKRRRKSCQACRFMKCLKVGMLKEGVRLD: the abundance fitness is -0.083 ± 0.069.
As to KRLCLVCGDIASGYHYGVASCEACKAFFKRTIQGNIEYSCPATNECMITKRRRKSCQACRFMKCLKVGMLKEGVRLD, the abundance fitness was -0.592 ± 0.15.
As for KRLCLVCGDIASGYHYGVASCEACKAFFKRTIQGNIEYSCPATNECNITKRRRKSCQACRFMKCLKVGMLKEGVRLD, the figure is -0.09 ± 0.12.
The same measure for KRLCLVCGDIASGYHYGVASCEACKAFFKRTIQGNIEYSCPATNECSITKRRRKSCQACRFMKCLKVGMLKEGVRLD: -0.229 ± 0.064.
The same measure for KRLCLVCGDIASGYHYGVASCEACKAFFKRTIQGNIEYSCPATNECIITKRRRKSCQACRFMKCLKVGMLKEGVRLD: -0.476 ± 0.16; for KRLCLVCGDIASGYHYGVASCEACKAFFKRTIQGNIEYSCPATNETEITKRRRKSCQACRFMKCLKVGMLKEGVRLD: -0.766 ± 0.15; for KRLCLVCGDIASGYHYGVASCEACKAFFKRTIQGNIEYSCPATNEREITKRRRKSCQACRFMKCLKVGMLKEGVRLD: -0.704 ± 0.082.
On to KRLCLVCGDIASGYHYGVASCEACKAFFKRTIQGNIEYSCPATNEVEITKRRRKSCQACRFMKCLKVGMLKEGVRLD, for which the abundance fitness was -0.615 ± 0.084.
The same measure for KRLCLVCGDIASGYHYGVASCEACKAFFKRTIQGNIEYSCPATNEQEITKRRRKSCQACRFMKCLKVGMLKEGVRLD: -0.834 ± 0.17; for KRLCLVCGDIASGYHYGVASCEACKAFFKRTIQGNIEYSCPATNEYEITKRRRKSCQACRFMKCLKVGMLKEGVRLD: -0.59 ± 0.23; for KRLCLVCGDIASGYHYGVASCEACKAFFKRTIQGNIEYSCPATNENEITKRRRKSCQACRFMKCLKVGMLKEGVRLD: -0.735 ± 0.2.
In the case of KRLCLVCGDIASGYHYGVASCEACKAFFKRTIQGNIEYSCPATNEPEITKRRRKSCQACRFMKCLKVGMLKEGVRLD, the abundance fitness was -0.796 ± 0.17.
As for KRLCLVCGDIASGYHYGVASCEACKAFFKRTIQGNIEYSCPATNEWEITKRRRKSCQACRFMKCLKVGMLKEGVRLD, the figure is -0.733 ± 0.098; as for KRLCLVCGDIASGYHYGVASCEACKAFFKRTIQGNIEYSCPATNESEITKRRRKSCQACRFMKCLKVGMLKEGVRLD, -0.539 ± 0.079; as for KRLCLVCGDIASGYHYGVASCEACKAFFKRTIQGNIEYSCPATNECESTKRRRKSCQACRFMKCLKVGMLKEGVRLD, -0.108 ± 0.061.
Consider KRLCLVCGDIASGYHYGVASCEACKAFFKRTIQGNIEYSCPATNECEVTKRRRKSCQACRFMKCLKVGMLKEGVRLD, for which the abundance fitness stood at 0.007 ± 0.064.
Turning to KRLCLVCGDIASGYHYGVASCEACKAFFKRTIQGNIEYSCPATNECEGTKRRRKSCQACRFMKCLKVGMLKEGVRLD, the abundance fitness is -0.191 ± 0.066.
For KRLCLVCGDIASGYHYGVASCEACKAFFKRTIQGNIEYSCPATNECEMTKRRRKSCQACRFMKCLKVGMLKEGVRLD, the abundance fitness was -0.166 ± 0.11.
As for KRLCLVCGDIASGYHYGVASCEACKAFFKRTIQGNIEYSCPATNECEPTKRRRKSCQACRFMKCLKVGMLKEGVRLD, the figure is -0.242 ± 0.11.
On to KRLCLVCGDIASGYHYGVASCEACKAFFKRTIQGNIEYSCPATNECENTKRRRKSCQACRFMKCLKVGMLKEGVRLD, for which the abundance fitness was 0.266 ± 0.16.
The same measure for KRLCLVCGDIASGYHYGVASCEACKAFFKRTIQGNIEYSCPATNECERTKRRRKSCQACRFMKCLKVGMLKEGVRLD: -0.518 ± 0.093; for KRLCLVCGDIASGYHYGVASCEACKAFFKRTIQGNIEYSCPATNECEWTKRRRKSCQACRFMKCLKVGMLKEGVRLD: -0.227 ± 0.13; for KRLCLVCGDIASGYHYGVASCEACKAFFKRTIQGNIEYSCPATNECETTKRRRKSCQACRFMKCLKVGMLKEGVRLD: -0.159 ± 0.075.
The same measure for KRLCLVCGDIASGYHYGVASCEACKAFFKRTIQGNIEYSCPATNECEFTKRRRKSCQACRFMKCLKVGMLKEGVRLD: -0.298 ± 0.093; for KRLCLVCGDIASGYHYGVASCEACKAFFKRTIQGNIEYSCPATNECEATKRRRKSCQACRFMKCLKVGMLKEGVRLD: -0.157 ± 0.079.
